Experimental data reported in patent US20170320956A1 (KYMAB, published 2017).

Key:
[1] = target: human LIGHT-214E, full length, expressed on the surface of CHO-S cells (human, UniProt O43557 1-240); assay: flow cytometry, CHO-S cells expressing hLIGHT-214E
mouse LIGHT = target: T1, mouse LIGHT (mouse, UniProt Q9QYH9 72-239, limits assumed); assay: SPR ProteOn, mAb captured on anti-mouse IgG
T1 construct: also called murine LIGHT
T1 sequence (looked up): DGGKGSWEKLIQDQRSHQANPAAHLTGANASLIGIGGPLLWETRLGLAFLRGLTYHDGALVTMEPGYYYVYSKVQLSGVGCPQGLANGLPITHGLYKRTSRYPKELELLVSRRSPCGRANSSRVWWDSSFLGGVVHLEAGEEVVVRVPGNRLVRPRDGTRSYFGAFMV

[2] = target: T2, recombinant human LIGHT-214E, FLAG-tagged extracellular domain (human); assay: cell-based or functional assay
T2 chain: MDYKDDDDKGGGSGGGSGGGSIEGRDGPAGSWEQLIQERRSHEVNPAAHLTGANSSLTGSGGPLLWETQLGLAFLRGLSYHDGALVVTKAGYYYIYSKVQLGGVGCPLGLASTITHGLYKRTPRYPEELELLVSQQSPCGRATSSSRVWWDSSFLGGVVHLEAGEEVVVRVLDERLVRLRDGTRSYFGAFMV

[3] = target: T2, recombinant human LIGHT-214E, …; assay: HTRF competition, LTβR-Fc binding to Flag-hLIGHT-214E
Procedure: (§1) The following methods were carried out with a titration of inhibitor in order to establish the clone potency as measured by IC50 values in the assay. 5 μl of Flag-tagged hLIGHT (in-house) diluted to 2.5 nM final concentration (10 nM working concentration) in HTRF buffer with 5 μl of a titration of antibody purified from hybridoma supernatant diluted in HTRF assay buffer from 300 nM final (1200 nM working concentration) was pre-incubated for 1 hour at room temperature. To wells used to define total binding, 5 μl of LIGHT (10 nM working, 2.5 nM final) and 5 μl of hybridoma maintaining media (HMM,)) were added. To wells used to define non specific binding (receptor only) 10 μl of HMM was added. Total and non specific binding wells were pre-incubated for 1 hr at RT in the same plate as wells containing titration of inhibitor.
(§2) LIGHT receptor was diluted in HTRF assay buffer and added to all wells, 5 μl/well of HVEM-Fc or LTβR-Fc (R&D systems) at 1.2 nM for HVEM (0.3 nM final) and 0.4 nM for LTβR (0.1 nM final).

[4] = target: T3, recombinant human LIGHT-214K, FLAG-tagged extracellular domain (human); assay: SPR ProteOn, mAb captured on anti-mouse IgG, LIGHT 256 nM, 25 C
T3 construct: the IgK leader peptide is marked only by underlining (not visible here), so its residues were not removed; Trimer
T3 chain: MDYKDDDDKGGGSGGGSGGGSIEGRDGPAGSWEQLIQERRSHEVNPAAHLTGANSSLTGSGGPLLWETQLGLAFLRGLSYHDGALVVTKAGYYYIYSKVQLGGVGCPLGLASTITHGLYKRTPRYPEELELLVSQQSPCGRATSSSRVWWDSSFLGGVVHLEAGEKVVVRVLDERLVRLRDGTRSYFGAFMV
Procedure: (§3) SPR analysis was carried out using the ProteOn™ XPR36 Array System (BioRad). Anti-mouse IgG (GE Healthcare BR-1008-38) was immobilised on a GLC biosensor surface using amine coupling, the surface was then blocked using 1M ethanolamine. […] Apparent affinities for the LIGHT-antibody interaction were determined using the 1:1 model inherent to the ProteOn XPR36 analysis software. The assay was run using HBS-EP (Teknova) as running buffer and carried out at 25° C.

[5] = target: T4, recombinant cynomolgus monkey LIGHT, FLAG-tagged extracellular domain (cynomolgus (Macaca fascicularis), UniProt E9NVF7 59-240); assay: SPR ProteOn, mAb captured on anti-mouse IgG, LIGHT 256 nM, 25 C, apparent affinity
T4 construct: extracellular domain; also called cynomolgus LIGHT; cyno LIGHT
Procedure: as §3

[6] = target: T2, recombinant human LIGHT-214E, …; assay: as above
Procedure: as §3

[7] = target: T2, recombinant human LIGHT-214E, …; assay: HTRF competition, HVEM-Fc binding to Flag-hLIGHT-214E
Procedure: as §1, §2

binding result [1]: binds
binding result (mouse LIGHT): no binding
HT29 IL-8 release, IC50 [2]: 1.42 nM
IC50 [3]: 2.53 nM
binding result [4]: no binding (tested: 256 nM)
Kd [5]: 2.82 nM
Kd [6]: 1.03 nM
IC50 [7]: 1.28 nM
B1: 117C06 (purified from hybridoma supernatant) (antibody, V domains shown)
VH: QVQLVQSGAEVKKPGASVKVSCKASGYTFVNFGISWVRQAPGQGLEWMGWISVYSGNTNYAQKLQGRVTLTTDTSTTTAYMELRSLRSDDTAVYYCARHNWNDYWGQGTLVTVSS
VL: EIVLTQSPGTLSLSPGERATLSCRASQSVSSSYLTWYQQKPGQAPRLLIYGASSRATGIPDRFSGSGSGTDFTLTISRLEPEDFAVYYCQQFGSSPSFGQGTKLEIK
notes: Murine constant / human variable chimeric IgG, kappa, Protein G purified from hybridoma supernatant
